Source: US20230235040A1 (ALMIRALL S A, published 2023)
Changes are numbered by the printed parent chain.

Assays:
[1] = molecular target: T1, hu-IL-36β (human IL-36β, N-terminally truncated active form R5-E157) (human); assay: cell-based or functional assay
T1 chain: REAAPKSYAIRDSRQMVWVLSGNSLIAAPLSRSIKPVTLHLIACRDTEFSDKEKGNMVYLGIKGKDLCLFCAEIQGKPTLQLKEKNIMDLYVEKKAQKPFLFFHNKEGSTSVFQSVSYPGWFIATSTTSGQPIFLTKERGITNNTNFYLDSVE

[2] = molecular target: T1, hu-IL-36β (human IL-36β, N-terminally …); assay: SPR (Biacore 8K), biotinylated hu-IL-36β captured on CAP chip, Fab injected, 37°C
Description: (§1) Briefly, a 1:4 dilution of Biotin CAPture Reagent (GE) into HBS-EP buffer (0.01 M HEPES pH 7.4, 0.15 M NaCl, 3 mM EDTA, 0.005% Surfactant P20) was applied to a CAP sensor chip at 2 uL/min flow rate. For kinetics measurements, 6 nM biotinylated human IL-36β was captured at 10 uL/min to achieve ˜50 response units in the second flow cell (FC2). FC1 was kept as a reference. […] The sensorgram was recorded and subject to reference and buffer subtraction before evaluating by BIACORE® 8K Evaluation Software (version 1.1.1.7442). Association rates (kₒₙ) and dissociation rates (koff) were calculated using a simple one-to-one Langmuir binding model.

[3] = molecular target: T2, hu-IL-36α (human IL-36α, N-terminally truncated active form K6-F158) (human, UniProt Q9UHA7 6-158); assay: cell-based or functional assay
T2 sequence: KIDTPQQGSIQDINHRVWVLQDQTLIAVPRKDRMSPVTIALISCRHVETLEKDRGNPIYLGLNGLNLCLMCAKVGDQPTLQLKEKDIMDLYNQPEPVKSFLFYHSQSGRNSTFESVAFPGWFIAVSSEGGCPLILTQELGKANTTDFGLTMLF

[4] = molecular target: T3, hu-IL-36γ (human IL-36γ, N-terminally truncated active form S18-D169) (human, UniProt Q9NZH8 18-169); assay: cell-based or functional assay
T3 sequence: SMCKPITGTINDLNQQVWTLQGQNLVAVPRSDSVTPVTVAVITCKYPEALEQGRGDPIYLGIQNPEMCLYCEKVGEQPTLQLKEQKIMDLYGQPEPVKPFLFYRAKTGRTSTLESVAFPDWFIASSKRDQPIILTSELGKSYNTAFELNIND

[5] = molecular target: T2, hu-IL-36α (human IL-36α, N-terminally …); assay: phage competition ELISA: Fab on phage, soluble hu-IL-36α titrated against coated hu-IL-36α
Description: (§2) Selected phages with top binding signal were purified to perform phage competition ELISA. The optimal phage concentration was incubated with serially-diluted human IL-36α or human IL-36γ in ELISA buffer in NUNC F plate for two hours. 80 μL of the mixture was transferred to human IL-36α or human IL-36γ coated wells for 15 min to capture unbound phage. The plate was washed with wash buffer (0.05% TWEEN®20 in PBS), and HRP-conjugated anti-M13 antibody (Sino biological, Cat #11973-MM05-H-50) was added in ELISA buffer for 30 min. The plates were washed and developed as described above. The absorbance at 450 nm was plotted as a function of antigen concentration in solution to determine phage IC50.

[6] = molecular target: T3, hu-IL-36γ (human IL-36γ, N-terminally …); assay: phage competition ELISA: Fab on phage, soluble hu-IL-36γ titrated against coated hu-IL-36γ
Description: as §2

[7] = molecular target: T2, hu-IL-36α (human IL-36α, N-terminally …); assay: SPR (Biacore 8K), biotinylated hu-IL-36 captured on CAP chip, Fab injected, 37°C
Description: as §1, with “3” for “6”, “IL-36α and human IL-36γ” for “IL-36β”

[8] = molecular target: T3, hu-IL-36γ (human IL-36γ, N-terminally …); assay: as above
Description: as §1, with “3” for “6”, “IL-36α and human IL-36γ” for “IL-36β”

B1: mAb6_2.5 Fab (Fab, V domains shown)
VH: ELQLQESGPGLVKPSETLSLTCTVSGGSITASNYYWGWIRQPPGKGLEWIGSIDYTGSTYYEPSLKSRVTISVDTSKNQFSLKLSSVTAADTAVYYCATGSYYETYLGFDVWGQGTLVTVSS
VL: ESVLTQPPSVSGAPGQRVTISCTGSSSNIGAHYDVHWYQQLPGTAPKLLIYGNDNRPSGVPDRFSGSKSGTSASLAITGLQAEDEADYYCQSYDYSLSGYVFGGGTKLTVL
notes: Recombinant Fab with 8xHis tag (Expi293F)
IC50, IL-36-stimulated IL-8 secretion by HaCat cells [1]: 0.2 nM | Kd [2]: 0.66 nM | koff [2]: 0.000476 s⁻¹ | kon [2]: 717000 M⁻¹ s⁻¹

B2: mAb3.0 recombinant human IgG1 (antibody, V domains shown)
VH: QLQLQESGPGLVKPSETLSLTCTVSGGSISSTSYYWGWIRQPPGKGLEWIGSIHYSGNTYYNPSLKSRVTISVDTSKNQFSLKLSSVTAADTAVYYCARVHYGGYIPRRFDHWGQGTLVTVSS
VL: B1 VL with E1Q, H32G, D54T, S98R
IC50, HEK-Blue IL-36R SEAP reporter assay [3]: 90 nM | IC50, HEK-Blue IL-36R SEAP reporter assay [4]: 30 nM

B3: mAb5.0 recombinant human IgG1 (antibody, V domains shown)
VH: EVQLLESGGGLVQPGGSLRLSCAASGFTFSTYAMSWVRQAPGKGLEWVSGISGGSGYTYYADSVKGRFTISRDNSKNTLYLQMNSLRAEDTAVYYCARVVTYRDPPASFDYWGQGTLVTVSS
VL: B1 VL with E1Q, S98K, G99A
IC50, HEK-Blue IL-36R SEAP reporter assay [3]: 95 nM | IC50, HEK-Blue IL-36R SEAP reporter assay [4]: 142 nM

B4: mAb6 Fab (Fab, V domains shown)
VH: B1 VH with A31S, E62N, T99R, S101K
VL: B1 VL with H32G, D54T, Y95I, Y100W
IC50, IL-36-stimulated IL-8 secretion by HaCat cells [1]: 0.15 nM

B5: mAb1.0 recombinant human IgG1 (antibody, V domains shown)
VH: QVQLVESGGGVVQPGRSLRLSCAASGFSFSAYAMHWVRQAPGKGLEWVAVISYDGTNEYYADSVKGRFTISRDNSKNTLYLQMNSLRAEDTAVYYCARGIRIFTSYFDSWGQGTLVTVSS
VL: B1 VL with E1Q, G52S, D54N, S98R
IC50, HEK-Blue IL-36R SEAP reporter assay [3]: 43 nM | IC50, HEK-Blue IL-36R SEAP reporter assay [4]: 5.3 nM

B6: mAb4.0 recombinant human IgG1 (antibody, V domains shown)
VH: QLQLQESGPGLVKPSETLSLTCTVSGGSIGSRSYYWGWIRQPPGKGLEWIGSIHYSGTTYYNPSLKSRVTISVDTSKNQFSLKLSSVTAADTAVYYCARVAPSYPRVFDYWGQGTLVTVSS
VL: B1 VL with E1Q, H32G, D54R, S98R, G99V
IC50, HEK-Blue IL-36R SEAP reporter assay [3]: 16 nM | IC50, HEK-Blue IL-36R SEAP reporter assay [4]: 52 nM

B7: mAb2.6 Fab (phage-displayed) (Fab, V domains shown)
VH: ELQLQESGPGLVKPSETLSLTCTVSGGSISTSSYHWGWIRQPPGKGLEWIGSIYYTGNTYYMPSLKSRVTISVDTSKNQFSLKLSSVTAADTAVYYCVRVRYGVGVPRYFDPWGQGTLVTVSS
VL: B1 VL
IC50 [5]: 1.62 nM | IC50 [6]: 1.99 nM

B8: mAb6_2.10 Fab (Fab, V domains shown)
VH: B1 VH with A31S, E62Q, T99R, S101N
VL: B1 VL
notes: as for B1
Kd [2]: 2.47 nM | koff [2]: 0.00103 s⁻¹ | kon [2]: 415000 M⁻¹ s⁻¹

B9: mAb2.4 Fab (phage-displayed) (Fab, V domains shown)
VH: B7 VH with T31N, H35Y, M62L, V98A
VL: B1 VL
IC50 [5]: 0.68 nM | IC50 [6]: 1.52 nM

B10: mAb2.9 Fab (Fab, V domains shown)
VH: B7 VH with T31D, H35Y, N58E, M62A, V98A, R101K
VL: B1 VL
notes: as for B1
Kd [7]: 0.12 nM | koff [7]: 0.00026 s⁻¹ | kon [7]: 2.19e+06 M⁻¹ s⁻¹ | Kd [8]: 0.24 nM | koff [8]: 0.000565 s⁻¹ | kon [8]: 2.4e+06 M⁻¹ s⁻¹

B11: mAb2.5 Fab (phage-displayed) (Fab, V domains shown)
VH: B7 VH with T31E, H35Y, M62L, V98A
VL: B1 VL
IC50 [5]: 0.77 nM | IC50 [6]: 1.88 nM

B12: mAb6_2.8 Fab (Fab, V domains shown)
VH: B1 VH with E62N, T99S, S101K
VL: B1 VL
notes: as for B1
IC50, IL-36-stimulated IL-8 secretion by HaCat cells [1]: 0.33 nM | Kd [2]: 1.08 nM | koff [2]: 0.000343 s⁻¹ | kon [2]: 317000 M⁻¹ s⁻¹

B13: mAb6_2.7 Fab (Fab, V domains shown)
VH: B1 VH with Y34T, E62N, S101K
VL: B1 VL
notes: as for B1
IC50, IL-36-stimulated IL-8 secretion by HaCat cells [1]: 0.2 nM | Kd [2]: 0.61 nM | koff [2]: 0.00018 s⁻¹ | kon [2]: 297000 M⁻¹ s⁻¹

B14: mAb6_2.6 Fab (Fab, V domains shown)
VH: B1 VH with S101N
VL: B1 VL
notes: as for B1
Kd [2]: 0.82 nM | koff [2]: 0.000705 s⁻¹ | kon [2]: 856000 M⁻¹ s⁻¹

B15: mAb2.8 Fab (Fab, V domains shown)
VH: B7 VH with T31D, H35Y, N58E, M62A, V98A, V100L
VL: B1 VL
notes: as for B1
Kd [7]: 0.14 nM | koff [7]: 0.000254 s⁻¹ | kon [7]: 1.83e+06 M⁻¹ s⁻¹ | Kd [8]: 0.17 nM | koff [8]: 0.000301 s⁻¹ | kon [8]: 1.8e+06 M⁻¹ s⁻¹

B16: mAb2.3 Fab (phage-displayed) (Fab, V domains shown)
VH: B7 VH with Y34D, H35Y, M62L, V98S
VL: B1 VL
IC50 [5]: 0.82 nM | IC50 [6]: 2.39 nM

B17: mAb2.1 Fab (phage-displayed) (Fab, V domains shown)
VH: B7 VH with T31D, H35Y, M62N, P63S, V98A
VL: B1 VL
IC50 [5]: 1.03 nM | IC50 [6]: 4.86 nM

B18: mAb2.12 Fab (Fab, V domains shown)
VH: B7 VH with T31E, H35Y, N58E, M62A, V98A, R101K
VL: B1 VL
notes: as for B1
Kd [7]: 0.16 nM | koff [7]: 0.000277 s⁻¹ | kon [7]: 1.7e+06 M⁻¹ s⁻¹ | Kd [8]: 0.28 nM | koff [8]: 0.000503 s⁻¹ | kon [8]: 1.81e+06 M⁻¹ s⁻¹

B19: mAb2.7 Fab (phage-displayed) (Fab, V domains shown)
VH: B7 VH with T31R, H35Y, M62W, V98T
VL: B1 VL
IC50 [5]: 1.2 nM | IC50 [6]: 1.53 nM

B20: mAb2.2 Fab (phage-displayed) (Fab, V domains shown)
VH: B7 VH with T31E, H35Y, M62N, V98A, R99G
VL: B1 VL
IC50 [5]: 0.75 nM | IC50 [6]: 3.79 nM

B21: mAb6_2.9 Fab (Fab, V domains shown)
VH: B1 VH with A31S, E62N, S101K
VL: B1 VL
notes: as for B1
Kd [2]: 1.37 nM | koff [2]: 0.000411 s⁻¹ | kon [2]: 299000 M⁻¹ s⁻¹
